Reference: IntAct's records for PubMed 15028672

Biological target: crx_bovin CRX (UniProt Q9XSK0)
Sequence (Q9XSK0 whole entry): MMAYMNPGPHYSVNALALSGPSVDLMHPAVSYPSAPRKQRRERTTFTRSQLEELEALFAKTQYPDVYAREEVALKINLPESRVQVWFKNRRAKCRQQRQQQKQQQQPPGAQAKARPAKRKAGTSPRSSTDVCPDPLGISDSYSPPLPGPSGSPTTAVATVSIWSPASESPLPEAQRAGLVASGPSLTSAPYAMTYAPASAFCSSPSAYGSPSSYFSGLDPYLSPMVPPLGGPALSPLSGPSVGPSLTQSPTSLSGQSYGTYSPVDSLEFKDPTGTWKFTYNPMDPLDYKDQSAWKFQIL

Chain of Retina and anterior neural fold homeobox protein 2 (Bos taurus (Bovine)), Q7YRX0 G137R (Q7YRX0 whole entry G137R): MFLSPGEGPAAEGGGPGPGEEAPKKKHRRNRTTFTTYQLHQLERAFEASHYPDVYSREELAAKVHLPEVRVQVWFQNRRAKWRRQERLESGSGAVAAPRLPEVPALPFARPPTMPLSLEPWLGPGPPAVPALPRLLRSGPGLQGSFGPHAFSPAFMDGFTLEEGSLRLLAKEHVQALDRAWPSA

effect of a mutation on the interaction: decreasing interaction
Substance: Retina and anterior neural fold homeobox protein 2 (Bos taurus (Bovine)), Q7YRX0 G137R
